Experimental data taken from the DeepSol protein solubility set.

Assay: soluble on expression in E. coli; label from the status in PepcDB or PDB records

| Sequence | soluble on expression in E. coli |
| --- | --- |
| MGSDKIHHHHHHMTTIHVSDLSKTYGTDTNVPVLSGVSFDLTSPAIHGLIGANGVGKTTLLRILAGQSRCEGVVEVDGQPAFDNPEVMDRCVLMGIDVPLPSTWRGTKLLSFAQHRYPRWDEARCAQLIDAFQVPVDKPYQSLSRGQKSALGIIIAFSATCDITLLDEPYLGLDVANRDLFYRELRAEQARCPRLIILSTHHINEASHVFDSVMVLKKDGVALQGDVESITGRVVELVGPKATIEGFVSHPARRIGEVHTAGGVAKVLAEARAEEWDQLSALGLRTHEVSLERAVMFLECD | not soluble |
| MNAQEFKEKKTETTGAHHAQRLGIAAGMTVQEVGWDEDCDSTISEAIEDILGEELLDEETDEACDVVLLWWRSDDGDLVDGLVDSIRPLADNGRIWLLTPGAGKQGALDPGEISESAQLAGLVQTKAERLGAWQGSCLVQRGNKQ | not soluble |
| MQITTVNVNGIRAAVKQRSDANRGMLPWLEQCGSDVVLLQEVRASEKDSLTALAPALDAGWHYVGAPAAAKGRAGVGILSRQPLRDVQVGLEGFVDSGRYIQATLSDPDTGHDVVVASLYLPSGSADTDKQDEKYRFLDVFGPFLEQAAQDNPHMVVGGDWNICHRMQDLKNWKTNRKKSGFLPDERAFMDSVFGVFPDSESQVSDAGQWAGAVDYTSQQRRTPANDPKWFDVARRLAPEDAAYTWWTYRGQAFDTNAGWRIDYQAATSAMLERATRCWVDKAAAYDLRWSDHSPLTVVYS | soluble |
| MKSFILGPLGLLVAICCLYQPADAALAAMSIDLGSQFIKIGLVKPGVPMDIVLNKESRRKTPNVISFKNDERFFAEAAAAMSSSHPQSSYNFLLSMIARKEGDDAFVTFQKTFPFTAFEFDEVRKTVVFPYKEEKYNVETLLAMILWNAKKVTEAYADQTVKDVVITVPIFLNQAERRAIASAAEIAGLNLLQLLNDGSAAALNYGVFRRKEITEKPTHMLIYDMGAVKTTATIVQYVLESTRKDGKDKQPTLRTVGVGFDKTLGGLEITNRLRDHLEKVFRDTVKTSKDISTNARAIGKLHKEAERVKQVLSANKDTYAQVESLFEEQNFRAKVTREELEKMIEDLEPRIAAPILDAIGMAQISTNDIDLVVLMGAGTRVPKVKEILKTILKDKEISNFLNTDEAIAMGAVYQAAHLSKSFKVLPFNVHEKILYPVFVNFLTKTEEGTMKPIRKSLFGENYPVPNRVMHFSSYSDDFKIDIQDADKNPLSTVEISGVKDAIEKEVTDENSVLKGVKTTFSIDLSGIVSVEKASVVVEKVPTPEEKDKYEVDKKEFDEWEKEQEELKKKEKAEKKEKEEKKKTEGEEEKNEDAAGEEKTEEKTEEVEKPVVVKKTKPVEPKAKKINVALTIKETKTDNIDLNEEEVTAAKKVLGDFEQKEKEKHDREEAMNRLEGLLYDLAVRLEDGEEYAEYATEEEKKAILEEVAVLKLWFEDDVSLETKKEEFDEKRAKLEELTAKPNARKQERLDIPKVAEIIEDHFNRSMTFHAMALNLTQFEEGNKTFTDTELEVLTKLIESTTEWWNEKKDLFEKQAKNEDPVVKASEIAEKARDLEREVRYLVNKLKIASSKKSKESEKKKKTKKEKDTVKERKEEETTETTTEDQANEQQTPPPFENDNTKDDESASTEEPKKDTEHDASEL | not soluble |
| MRHDTRLSRVLHILIHMEKHEGAATSENIAAMLQTNPVVVRRTMAGLREHGYVSSEKGHGGGWVLAQPLTEITLLDIYRALGAPELFSIGLAGDNPNCVIEQAVNAALFDAMNEAENILLSRFGSITLSTLAEESIDRWSKLSNCPSAMEQL | not soluble |
| MGSDKIHHHHHHVTPLPIVDPGPPVLYDVEHVTSYRYALPVTVSHQCAHLKPRSFATQQVLSTQLGATPLPEIRSERIDYFGNTVTSFSLSEPHESLTVVAQSQVRILPPTLPAAADTPRWEEVAERLRLGFGADTLDACQMLYPSGHVKTLPEVRAYALPSFPPDRPILEAAIDLTGRIHADFTYDPTATTVATPLAEVLAKRRGVCQDFAHLQIACLRSMGLAARYVSGYVLTCSTESGERLEGGDASHAWVSLYVPCAAAPNGGWIDLDPTNDKLITREHVTVAWGRDFEDVSPIKGVMLGGGAQTVSVAVTLRPRTNGPRARTESPA | not soluble |
| MVEDTKTQMAAAISATLVFAARRRPLFCSLSSSSSSKPNTRKLVLYSKPGCCLCDGLKEKLHAAFTLSTGPDSLNDVTLQVRDITTNPEWERAYQYEIPVLAKENSDGKEEVLPRLSPRLSAELIQKKLLAAFS | not soluble |
| MASNVSLTGLAHDLKQRAENHPPIRIGLIGCGEMGTDLLSSIAHMDGITVAAVATRTPSRIFDAARLAYGEEGHVREVENASALTRTIEKGLIAATNDIDLVLRHEQIDIIVDATGYPEAGAEIGFKALENNKNLVMMNVEADVTIGAYLKHEAEKQGLIYTLGAGDEPTSCMELIEFVSALGHKI | not soluble |
| MSLTVSKINEKATPVKKWTVYLVQHTHTDIGYTKPQTEILSEHLRYIDYAIEYCEQTKDYTNDAKFRWTCESAWAVDEYLKNRPEEQVNKLKKYIAEGQIEVASMYFNMSEIVDENSFKTFLQPVKEFRKHGIPSALAMQNDVNGIAWCLADYLPDLGIKYLWMGEHHYKSQVPFNMPTVFQWESPSGKPILTYRADHYNTGNFWGIEQGDIQKTEPKLLHYLSELERKHYPFDAVGVQYSGYFTDNSPPSIIECKLIREWNEKYAYPKLRSATASEFMDYVTERYGDKIPAYRAAYPDWWTDGFGSAARETAASRKTHSDMTAVEGLLSMAVLKDKCLPQATHQQIEHIHESLLFYDEHTFGASESVSDPLCENSQVQWGEKSAYAWEAVKRTQMLYETSVGLLQGDLRRGKNPTLTIFNTLNWKRSEMLTVYIDFEVIPRNQFFEITDFQGHSLKVQPIRYRREGCYYAIFAEDIPPMGYKTFEIVFKQPSTDTGTITINNASIENHFYKLQLNPDKGTIQSLYDKELNCELVDSSSPWELGAFIYEKLGNRDQLAQYRLDDYNRTGLSECRIIDSSNGPIYQRILLQGKSPGTDEAFGVNLEIKLYHDTKRIELEYAIKRLPETDPSGIYVAFPFQLPEGKLAFDVQGGTVISGKNQLEGTSTDWNTVQNFVSVQNNQAQIIIGSSLIPLYQLGDINLGKFQYQKQYERPHVYSWVMNNYWNTNFKASQEGEFRWSYHLTSSVDPSNNLATKFGWSSRIPLYARVMPTGTENHKPTEYSAFHFEKDNFLMTSCTPSKEEGYILLNIREIDGKRTNLRILNEDGQTIPFTIVNAIEEKLENETSEHIFEGYQNKFIKIKREGHHHHHH | soluble |
| MGSDKIHHHHHHMALIEVQNLKKYFPVKQGPIDVLLRKPRKFVKAVDGVNFQIDEGKSLGLVGESGSGKTTTGRVILRLEEPTDGKIIFDGRDITKLSKEEMRKLRKEMQIIFQDPMASLNPYMRVGKAIEHALEIHGIGDRSSRKEMVLEMLRRVNLEPAEDIYRRYPRELSGGQRQRVVIARALILKPRLVVADEAVAMLDVSVRSQLLRLLQELRKEFNLTMLFITHDLATTKYVCDEIAVMYLGKIVEIGDFEDIYLNPKHPYTQALISAVPEPSLKKKKKFIPEGETPNPIDVPSGCRFHPRCPYRMDICMKEEPQLKAVEENHKVACHLYN | not soluble |
| MGSDKIHHHHHHLDNSTSTATIDPPLRLGLAMWSQNQWQQTVYGNSQAHRLARYAEIFNTVEGNTTFYATPSLQNVQNWYAATHDEFKFTFKLPKHITHELQLQHAGPALQQFFSIMEPLINRTGVWKIQLPASFGPQSLPQLAQFLTQVPQGLTYGVEVRNSAFFAKGEAEQALNRLLIDNNCNRIIMDTRPVFAAAPTTAAVIDAHQKKPKVPVHAIATAHNPVVRFIGHPQAEANIHFFQNWLKQLPLWIAQNKQPYLFIHTPDNHNAPQLAVDLYRLLQQQLAQSTSALTDINLLPQQQHTTTQMGFDL | not soluble |
| MGQVSAASTILINAEPTATLDALADYETVRPKILSPHYSEYQVLEGGKGRGTVAKWRLQATQSRVRDVQVNVDVAGHTVIEKDMNSSMVTNWTVAPAGPGSSVTVKTTWTGAGGVKGFFEKTFAPLGLKKIQAEVLSNLKTELEGDA | soluble |
| MGSDKIHHHHHHMEPIMRNPEDALLDSWHQNAQAWIDAVRHGAIESRRQVTDQAILLAILGRQPERVLDLGCGEGWLLRALADRGIEAVGVDGDRTLVDAARAAGAGEVHLASYAQLAEAKVPVGKDYDLICANFALLHQDIIELLSAMRTLLVPGGALVIQTLHPWSVADGDYQDGWREESFAGFAGDWQPMPWYFRTLASWLNALDMAGLRLVSLQEPQHPQSAVPQSLLMVAERH | not soluble |
| EIGEPDVTDATLGSVYSEIISPVKDCILTVAKAVSFNPGGKDNTDAVEVLTELNTKVERAALNQPILTTKTER | soluble |
| GMKFSKFGQKFTQPTGISQLMDDLGDALKSDQPVNMLGGGNPAKIDAVNELFLETYKALGNDNDTGKANSSAIISMANYSNPQGDSAFIDALVGFFNRHYDWNLTSENIALTNGSQNAFFYLFNLFGGAFVNEHSQDKESKSVDKSILLPLTPEYIGYSDVHVEGQHFAAVLPHIDEVTHDGEEGFFKYRVDFEALENLPALKEGRIGAICCSRPTNPTGNVLTDEEMAHLAEIAKRYDIPLIIDNAYGMPFPNIIYSDAHLNWDNNTILCFSLSKIGLPGMRTGIIVADAKVIEAVSAMNAVVNLAPTRFGAAIATPLVANDRIKQLSDNEIKPFYQKQATLAVKLLKQALGDYPLMIHKPEGAIFLWLWFKDLPISTLDLYERLKAKGTLIVPSEYFFPGVDVSDYQHAHECIRMSIAADEQTLIDGIKVIGEVVRELYDNK | soluble |
| QTPVYLDTSKPIEERVKDALSRMTLEEKVKMTHAQSKFSSPGVPRLGIPEVWATDGPHGIRPEVLWDEWDQAGWTNDSCIAYPALTCLSATWNPEMSYLYGKSIGEEARYRKKDILLGPGVNIYRTPLNGRNFEYMGEDPYLSSMMVVPYIKGVQENGVAACVKHYALNNQEFNRHTTNVHLSDRALYEIYLPAFKAAVQEGGAWAIMGAYNLYSFSEDTDSGKLYKTQHACHNKRLLQDILRKEWGFDGVVVSDWGGVHDTFQAISNGLDMEFGSWTNGLSAGTRNAYDNYYLAHPYLKLIQDGTVGTKELDEKVSNILRLIFRTSMNPH | not soluble |
| MSLKGDYFFMDRRPLILVAEENLHNLELLNSHMKTLNYDCICAKQGVRAIILAQTQKPDLIILDMILSDLSGSQVINHLKQDSKTANIPIIAVIPFILVQNQDHLFLTGADDYITKPYNFIQLNTLITHYVNRRHSSSLLSEGHHHHHH | soluble |
| MSLRPQAPMTQTPMAQASTSTTTPQKIVLYMATTTSVKDTGLLDVLIPDFEKWAASRGYNIEVRYTAVGTGQALAMAARGDVDVVIVHAPSLEKQYLENGTLKCRDVIAYNFFIIVGPRDDPAGAKSLTATEAFRRIAEAKAPFVSRGDRSGTHLMELSLWRRAIGREPDPKNDTWYISAGAGMGQTLLLANEKSAYTLSDTGTWLRYRDKLPQLDVIVQAAPDLINIYSFSIVKLSNATRLMAQYMKTRGLEVIGNLTINGVSLFTPINKADPKAMEWIKTAIFGPSCVEREGHHHHHH | soluble |
| KTTVIPESLKILGWVEFTRLEPWGIKTPARIDTGANTSSMSARDINVFKRNGKTWVRFTFDFKKGTAERSIEIERPLVRMVKIKQHDGPSQERPVISMEICLADEIREAEFDLIDRRALNYPVLLGRKALAGYVVVDPARAYLTKAV | not soluble |
| MPKWISIDEAAHKYGVKEEDICLWAEMEAITAYFTETTLIIDEKSLQKFMYLRKNLPTTGYIRTLEQLCINQSEVCKLYMEVIELQEKDLQYKKRRISVLERQYAMATKQNKLREKIITITSDMLSKAESGWWEKLWMKISNRQKL | not soluble |
| MAVPSGVHRCFFRGQSVSLEKLLSIFASEVCEQVVFIGENHEHSVAQQLELRILEALWLSSQRQNRQLLLSLEFLDRSQQHVLNEAMLRDEIESVVPEPYVPLVRFARTNNLAVLAANAPRSITSRVAKQGQQAVMETLSPKERAWCAPTPWPAPSNAYSEAFQAIMQQVMRPDPSSAQAQQERMQRMLQAQSLWDATMAFSIAEALERYPKAQVLHVTGFFHVANRLGTVEMLAHYRNTVNALVSIVYPEELQHSTSALDGDVVIYAP | not soluble |
